Results as given in PMC7902612, “A synergetic effect of BARD1 mutations on tumorigenesis” (Nature Communications, 2021).

Target: T1, GST-BRCA1-N (N-terminal of BRCA1, 1-147 aa) (human, UniProt P38398 1-147)
T1 construct: BRCA1, human, N-terminal residues 1-147; Cloned into pGEX-4T-1, which as far as I know puts GST at the N-terminus; also called recombinant BRCA1-N
Assay: MST; RED-NHS-labelled GST-BARD1-N or GST-BARD1^P24S-N at constant concentration (10-50 nM), twofold serial dilutions of GST-BRCA1-N; 50 mM Tris-HCl pH 7.4, 150 mM NaCl, 10 mM MgCl2, 0.05% Tween 20; 15 min at room temperature; Monolith NT.115, 20% and 40% MST power
Settings: both partners purified

T1 sequence (P38398 1-147): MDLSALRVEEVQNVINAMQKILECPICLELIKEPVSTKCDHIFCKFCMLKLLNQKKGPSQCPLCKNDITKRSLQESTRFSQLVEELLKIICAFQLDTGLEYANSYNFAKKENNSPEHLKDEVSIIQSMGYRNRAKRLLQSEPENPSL

Kd: 890 nM
B1: GST-BARD1-N (N-terminal of BARD1, 1-142 aa) (domain or fragment, human, UniProt Q99728 1-142, looked up)
chain: MPDNRQPRNRQPRIRSGNEPRSAPAMEPDGRGAWAHSRAALDRLEKLLRCSRCTNILREPVCLGGCEHIFCSNCVSDCIGTGCPVCYTPAWIQDLKINRQLDSMIQLCSKLRNLLHDNELSDLKEDKPRKSLFNDAGNKKNS
modifications: fluorescent label from the RED-NHS protein labeling kit (NanoTemper)
notes: BRCA1-associated RING-domain protein 1 (BARD1), human, N-terminal residues 1-142; Cloned into pGEX-4T-1, which as far as I know puts GST at the N-terminus
